# Experimental data from article PMC11555717 (Cancer Medicine, 2024).
# Assays:
# [1] = EV-203 safety/tolerability: adverse events; assay type: in vivo, human; settings: for Treatment-related adverse event: Any: 1.25 mg/kg; for Treatment-related adverse event: Any / Treatment-emergent adverse event: Alopecia / Treatment-emergent adverse event: Anemia / Treatment-emergent adverse event: Any / Treatment-emergent adverse event: Aspartate aminotransferase increased / Treatment-emergent adverse event: Constipation / Treatment-emergent adverse event: Decreased appetite / Treatment-emergent adverse event: Diarrhea / Treatment-emergent adverse event: Hyperglycemia / Treatment-emergent adverse event: Hypokalemia / Treatment-emergent adverse event: Hyponatremia / Treatment-emergent adverse event: Hypophosphatemia / Treatment-emergent adverse event: Nausea / Treatment-emergent adverse event: Neutrophil count decreased / Treatment-emergent adverse event: Pneumonia / Treatment-emergent adverse event: Pruritus / Treatment-emergent adverse event: Pyrexia / Treatment-emergent adverse event: Rash / Treatment-emergent adverse event: Rash maculo-papular / Treatment-emergent adverse event: Vomiting / Treatment-emergent adverse event: White blood cell count decreased / Treatment-related adverse event of special interest: Corneal disorder/blurred vision / Treatment-related adverse event of special interest: Dry eye / Treatment-related adverse event of special interest: Hyperglycemia (composite) / Treatment-related adverse event of special interest: Infusion-related reaction / Treatment-related adverse event of special interest: Peripheral neuropathy (composite) / Treatment-related adverse event of special interest: Skin reaction (composite) / Treatment-related adverse event: Alopecia / Treatment-related adverse event: Anemia / Treatment-related adverse event: Aspartate aminotransferase increased / Treatment-related adverse event: Constipation / Treatment-related adverse event: Decreased appetite / Treatment-related adverse event: Diarrhea / Treatment-related adverse event: Hyperglycemia (preferred term) / Treatment-related adverse event: Hypokalemia / Treatment-related adverse event: Hyponatremia / Treatment-related adverse event: Hypophosphatemia / Treatment-related adverse event: Nausea / Treatment-related adverse event: Neutrophil count decreased / Treatment-related adverse event: Pruritus / Treatment-related adverse event: Rash / Treatment-related adverse event: Rash maculopapular / Treatment-related adverse event: White blood cell count decreased: N = 40
# Text: Safety assessments included physical and ophthalmologic examinations, clinical laboratory tests, 12‐lead electrocardiography, and ECOG PS.
# PFS was defined as the time from the start of the study treatment to the first documentation of objective tumor progression (i.e., progressive disease per RECIST version 1.1) by IRC or investigator assessment (whichever was specified) or to death due to any cause, whichever came first. OS was defined as the time from the start of study treatment to the date of death due to any cause. […] AEs of special interest were medical concepts of composite terms based on search criteria (standard Medical Dictionary for Regulatory Activities query or sponsor‐specific query/customized Medical Dictionary for Regulatory Activities query). For example, skin reactions included categories of rash and severe cutaneous adverse reactions (which included specific events such as drug eruption, eczema, dermatitis, mouth ulceration, stomatitis, etc.). Data for treatment‐related AEs (TRAEs) were evaluated by the investigator.
# All patients who received any amount of study drug were included in the primary analyses of efficacy endpoints and safety analyses.
# [2] = EV-203 pharmacokinetics of ADC, TAb and free MMAE in serum or plasma; assay type: in vivo, human; settings: for Serum concentration at end of infusion / AUC0–7d / C max: mean (SD); for AUC0–7d: 1.25 mg/kg IV
# Method: In the PK cohort (i.e., PK analysis set), intensive PK sampling was performed wherein blood samples for analysis of ADC, total antibody (TAb), and free (unconjugated) MMAE were collected at prespecified time points. […] Blood samples for antitherapeutic antibodies (ATAs) were collected predose on Day 1 of cycles 1 to 4, 6, 8, 10, and within 30–37 days after the last study dose. Validated assays were used to measure concentrations of ADC, TAb, and free MMAE in serum or plasma and to assess ATA levels.
# All patients who received any amount of study drug were included in the primary analyses of efficacy endpoints and safety analyses. The PK analyses included data from patients in the PK cohort who received at least 3 of 4 doses of the study drug through cycle 2 Day 1 and had at least five blood samples collected and assayed for measurements of ADC, TAb, or free MMAE concentrations to determine at least one PK parameter.
# [3] = serum, Cycle 1 Day 1, PK cohort
# [4] = serum, Cycle 1 Day 15, PK cohort
substance,measurement,setting,value
"enfortumab vedotin: fully human monoclonal ADC directed to Nectin-4, delivering intracellular monomethyl auristatin E (MMAE) to tumor cells","Treatment-related skin reactions grade 3, patients",[1]; 13 patients,32.5%
same,"Treatment-related peripheral neuropathy, patients","[1]; 15 patients, all events grade 1 or 2",37.5%
same,"Serious TRAEs, patients",[1]; 16 of 40 patients,40.0%
same,"Dose interruption due to TRAEs, patients",[1]; 22 of 40 patients,55.0%
same,"Dose reduction due to TRAEs, patients",[1]; 25 of 40 patients,62.5%
same,"Grade 3 or higher TRAEs, patients",[1]; 29 of 40 patients,72.5%
same,Treatment-related adverse event: Any,[1]; any grade,40 (100) n (%)
same,"Treatment-related hyperglycemia, patients","[1]; any grade, 22 patients",55.0%
same,"Treatment-related skin reactions, patients","[1]; any grade, 31 patients",77.5%
same,Treatment-emergent adverse event: Alopecia,[1]; any grade,12 (30.0) n (%)
same,Treatment-emergent adverse event: Anemia,[1]; any grade,28 (70.0) n (%)
same,Treatment-emergent adverse event: Any,[1]; any grade,40 (100) n (%)
same,Treatment-emergent adverse event: Aspartate aminotransferase increased,[1]; any grade,26 (65.0) n (%)
same,Treatment-emergent adverse event: Constipation,[1]; any grade,19 (47.5) n (%)
same,Treatment-emergent adverse event: Decreased appetite,[1]; any grade,26 (65.0) n (%)
same,Treatment-emergent adverse event: Diarrhea,[1]; any grade,19 (47.5) n (%)
same,Treatment-emergent adverse event: Hyperglycemia,[1]; any grade,20 (50.0) n (%)
same,Treatment-emergent adverse event: Hypokalemia,[1]; any grade,15 (37.5) n (%)
same,Treatment-emergent adverse event: Hyponatremia,[1]; any grade,13 (32.5) n (%)
same,Treatment-emergent adverse event: Hypophosphatemia,[1]; any grade,7 (17.5) n (%)
same,Treatment-emergent adverse event: Nausea,[1]; any grade,20 (50.0) n (%)
same,Treatment-emergent adverse event: Neutrophil count decreased,[1]; any grade,19 (47.5) n (%)
same,Treatment-emergent adverse event: Pneumonia,[1]; any grade,5 (12.5) n (%)
same,Treatment-emergent adverse event: Pruritus,[1]; any grade,14 (35.0) n (%)
same,Treatment-emergent adverse event: Pyrexia,[1]; any grade,15 (37.5) n (%)
same,Treatment-emergent adverse event: Rash,[1]; any grade,17 (42.5) n (%)
same,Treatment-emergent adverse event: Rash maculo-papular,[1]; any grade,6 (15.0) n (%)
same,Treatment-emergent adverse event: Vomiting,[1]; any grade,12 (30.0) n (%)
same,Treatment-emergent adverse event: White blood cell count decreased,[1]; any grade,16 (40.0) n (%)
same,Treatment-related adverse event of special interest: Corneal disorder/blurred vision,[1]; any grade,2 (5.0) n (%)
same,Treatment-related adverse event of special interest: Dry eye,[1]; any grade,3 (7.5) n (%)
same,Treatment-related adverse event of special interest: Hyperglycemia (composite),[1]; any grade,22 (55.0) n (%)
same,Treatment-related adverse event of special interest: Infusion-related reaction,[1]; any grade,2 (5.0) n (%)
same,Treatment-related adverse event of special interest: Peripheral neuropathy (composite),[1]; any grade,15 (37.5) n (%)
same,Treatment-related adverse event of special interest: Skin reaction (composite),[1]; any grade,31 (77.5) n (%)
same,Treatment-related adverse event: Alopecia,[1]; any grade,12 (30.0) n (%)
same,Treatment-related adverse event: Anemia,[1]; any grade,27 (67.5) n (%)
same,Treatment-related adverse event: Aspartate aminotransferase increased,[1]; any grade,25 (62.5) n (%)
same,Treatment-related adverse event: Constipation,[1]; any grade,16 (40.0) n (%)
same,Treatment-related adverse event: Decreased appetite,[1]; any grade,25 (62.5) n (%)
same,Treatment-related adverse event: Diarrhea,[1]; any grade,19 (47.5) n (%)
same,Treatment-related adverse event: Hyperglycemia (preferred term),[1]; any grade,19 (47.5) n (%)
same,Treatment-related adverse event: Hypokalemia,[1]; any grade,14 (35.0) n (%)
same,Treatment-related adverse event: Hyponatremia,[1]; any grade,12 (30.0) n (%)
same,Treatment-related adverse event: Hypophosphatemia,[1]; any grade,7 (17.5) n (%)
same,Treatment-related adverse event: Nausea,[1]; any grade,20 (50.0) n (%)
same,Treatment-related adverse event: Neutrophil count decreased,[1]; any grade,19 (47.5) n (%)
same,Treatment-related adverse event: Pruritus,[1]; any grade,14 (35.0) n (%)
same,Treatment-related adverse event: Rash,[1]; any grade,17 (42.5) n (%)
same,Treatment-related adverse event: Rash maculopapular,[1]; any grade,6 (15.0) n (%)
same,Treatment-related adverse event: White blood cell count decreased,[1]; any grade,16 (40.0) n (%)
same,"Treatment-related hyperglycemia grade 3, patients",[1]; four patients,10.0%
same,Treatment-related adverse event: Any,[1]; grade ≥ 3,29 (72.5) n (%)
same,Treatment-emergent adverse event: Alopecia,[1]; grade ≥ 3,0 n (%)
same,Treatment-emergent adverse event: Anemia,[1]; grade ≥ 3,6 (15.0) n (%)
same,Treatment-emergent adverse event: Any,[1]; grade ≥ 3,30 (75.0) n (%)
same,Treatment-emergent adverse event: Aspartate aminotransferase increased,[1]; grade ≥ 3,1 (2.5) n (%)
same,Treatment-emergent adverse event: Constipation,[1]; grade ≥ 3,0 n (%)
same,Treatment-emergent adverse event: Decreased appetite,[1]; grade ≥ 3,1 (2.5) n (%)
same,Treatment-emergent adverse event: Diarrhea,[1]; grade ≥ 3,2 (5.0) n (%)
same,Treatment-emergent adverse event: Hyperglycemia,[1]; grade ≥ 3,3 (7.5) n (%)
same,Treatment-emergent adverse event: Hypokalemia,[1]; grade ≥ 3,2 (5.0) n (%)
same,Treatment-emergent adverse event: Hyponatremia,[1]; grade ≥ 3,5 (12.5) n (%)
same,Treatment-emergent adverse event: Hypophosphatemia,[1]; grade ≥ 3,5 (12.5) n (%)
same,Treatment-emergent adverse event: Nausea,[1]; grade ≥ 3,0 n (%)
same,Treatment-emergent adverse event: Neutrophil count decreased,[1]; grade ≥ 3,8 (20.0) n (%)
same,Treatment-emergent adverse event: Pneumonia,[1]; grade ≥ 3,5 (12.5) n (%)
same,Treatment-emergent adverse event: Pruritus,[1]; grade ≥ 3,2 (5.0) n (%)
same,Treatment-emergent adverse event: Pyrexia,[1]; grade ≥ 3,0 n (%)
same,Treatment-emergent adverse event: Rash,[1]; grade ≥ 3,5 (12.5) n (%)
same,Treatment-emergent adverse event: Rash maculo-papular,[1]; grade ≥ 3,4 (10.0) n (%)
same,Treatment-emergent adverse event: Vomiting,[1]; grade ≥ 3,0 n (%)
same,Treatment-emergent adverse event: White blood cell count decreased,[1]; grade ≥ 3,5 (12.5) n (%)
same,Treatment-related adverse event of special interest: Corneal disorder/blurred vision,[1]; grade ≥ 3,0 n (%)
same,Treatment-related adverse event of special interest: Dry eye,[1]; grade ≥ 3,0 n (%)
same,Treatment-related adverse event of special interest: Hyperglycemia (composite),[1]; grade ≥ 3,5 (12.5) n (%)
same,Treatment-related adverse event of special interest: Infusion-related reaction,[1]; grade ≥ 3,0 n (%)
same,Treatment-related adverse event of special interest: Peripheral neuropathy (composite),[1]; grade ≥ 3,0 n (%)
same,Treatment-related adverse event of special interest: Skin reaction (composite),[1]; grade ≥ 3,13 (32.5) n (%)
same,Treatment-related adverse event: Alopecia,[1]; grade ≥ 3,0 n (%)
same,Treatment-related adverse event: Anemia,[1]; grade ≥ 3,6 (15.0) n (%)
same,Treatment-related adverse event: Aspartate aminotransferase increased,[1]; grade ≥ 3,1 (2.5) n (%)
same,Treatment-related adverse event: Constipation,[1]; grade ≥ 3,0 n (%)
same,Treatment-related adverse event: Decreased appetite,[1]; grade ≥ 3,1 (2.5) n (%)
same,Treatment-related adverse event: Diarrhea,[1]; grade ≥ 3,2 (5.0) n (%)
same,Treatment-related adverse event: Hyperglycemia (preferred term),[1]; grade ≥ 3,3 (7.5) n (%)
same,Treatment-related adverse event: Hypokalemia,[1]; grade ≥ 3,2 (5.0) n (%)
same,Treatment-related adverse event: Hyponatremia,[1]; grade ≥ 3,5 (12.5) n (%)
same,Treatment-related adverse event: Hypophosphatemia,[1]; grade ≥ 3,4 (10.0) n (%)
same,Treatment-related adverse event: Nausea,[1]; grade ≥ 3,0 n (%)
same,Treatment-related adverse event: Neutrophil count decreased,[1]; grade ≥ 3,8 (20.0) n (%)
same,Treatment-related adverse event: Pruritus,[1]; grade ≥ 3,2 (5.0) n (%)
same,Treatment-related adverse event: Rash,[1]; grade ≥ 3,5 (12.5) n (%)
same,Treatment-related adverse event: Rash maculopapular,[1]; grade ≥ 3,4 (10.0) n (%)
same,Treatment-related adverse event: White blood cell count decreased,[1]; grade ≥ 3,5 (12.5) n (%)
same,"Dose interruption due to fatigue, patients",[1]; most common TRAE leading to dose interruption,10.0%
same,"Dose reduction due to rash, patients",[1]; most common TRAE leading to dose reduction,22.5%
same,"Hyperglycemia leading to treatment discontinuation, patients",[1]; one patient,2.5%
same,"Treatment-related hyperglycemia grade 4, patients",[1]; one patient,2.5%
same,"Death due to a TRAE, patients","[1]; one patient, acute coronary syndrome",2.5%
same,"Treatment discontinuation due to TRAEs, patients","[1]; two patients: acute coronary syndrome, hyperglycemia and rash",5.0%
same,"Deaths following malignant neoplasm progression, patients","[1]; two patients, not considered treatment-related",5.0%
same,Serum concentration at end of infusion,"[2]; cycle 1 Day 1, Non-PK cohort","25,300 (3830) [23] ng/mL"
same,Serum concentration at end of infusion,"[2]; cycle 1 Day 1, PK cohort","27,700 (4410) [13] ng/mL"
same,Serum concentration at end of infusion,"[2]; cycle 1 Day 8, Non-PK cohort","24,900 (5400) [17] ng/mL"
same,Serum concentration at end of infusion,"[2]; cycle 1 Day 8, PK cohort","27,400 (4390) [12] ng/mL"
same,Serum concentration at end of infusion,"[2]; cycle 1 Day 15, Non-PK cohort","22,000 (5980) [11] ng/mL"
same,Serum concentration at end of infusion,"[2]; cycle 1 Day 15, PK cohort","27,500 (3820) [10] ng/mL"
same,AUC0–7d,[2]; [3],32.4 (6.2) day μg/mL
same,C max,[2]; [3],28.1 (4.52) μg/mL
same,AUC0–7d,[2]; [4],36.5 (7.9) day μg/mL
same,C max,[2]; [4],27.6 (4.01) μg/mL
same,Time of peak serum concentration,"[2]; serum, PK cohort cycle 1",at the end of the enfortumab vedotin infusion
